Results on one substance are retold here after PMC2173304.

The target in this experiment is peptide corresponding to the cytoplasmic tail of lysosomal acid phosphatase (LAP) (UniProt P11117). Description: SPR. Background: In SPR one partner is held on a chip, and binding of the other changes the refractive index at the surface.
UniProt P11117, sequence (P11117 402-423): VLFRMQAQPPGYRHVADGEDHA

Consider “AP2 complex from pig brain, dephosphorylated with calf intestinal alkaline phosphatase”, for which the fold decrease in affinity against untreated AP2 is above 4 fold.
